Assay results from US20220220218A1 (JIANGSU HENGRUI MEDICINE, published 2022).

T1: human CD73 (huCD73) protein, antigen of the Biacore assay (human, UniProt P21589 27-547, limits assumed)
T1 construct: also called human CD73 antigen
T1 sequence (looked up): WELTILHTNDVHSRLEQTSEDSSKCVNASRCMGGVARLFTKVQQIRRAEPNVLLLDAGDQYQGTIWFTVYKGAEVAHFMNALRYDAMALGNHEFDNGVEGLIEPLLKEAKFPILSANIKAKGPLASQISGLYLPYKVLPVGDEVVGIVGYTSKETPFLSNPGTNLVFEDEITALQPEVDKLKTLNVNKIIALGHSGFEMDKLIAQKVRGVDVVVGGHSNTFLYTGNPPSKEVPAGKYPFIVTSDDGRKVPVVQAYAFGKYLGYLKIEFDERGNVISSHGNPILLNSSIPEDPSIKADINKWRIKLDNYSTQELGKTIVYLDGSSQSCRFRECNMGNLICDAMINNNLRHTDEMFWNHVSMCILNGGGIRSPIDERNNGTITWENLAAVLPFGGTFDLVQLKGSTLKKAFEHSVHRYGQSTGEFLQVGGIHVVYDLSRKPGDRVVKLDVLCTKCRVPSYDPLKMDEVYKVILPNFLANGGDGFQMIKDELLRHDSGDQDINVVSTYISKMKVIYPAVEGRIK


target: T1, human CD73 (huCD73) protein, antigen of …; assay: SPR Biacore T200; antibody captured on Protein A chip, CD73 in flow; 1:1 Langmuir
Source text: In this experiment, Biacore instrument was used to determine the affinity of the humanized anti-CD73 antibodies to be tested with human CD73 (huCD73) and monkey CD73 (cynoCD73).
A certain amount of test antibody was affinity-captured with Protein A biosensing chip (Cat. #29127556, GE), and then a certain concentration of human or monkey CD73 antigen was allowed to flow through the surface of the chip. The reaction signals were detected in real time with Biacore instrument (Biacore T200, GE) to generate a binding and dissociation curve. At the end of each cycle, after the dissociation was completed, the biosensor chip was washed and regenerated with Glycine-HCl, pH1.5 (Cat. #BR-1003-54, GE). The running buffer for the assay was 1×HBS-EP buffer solution (Cat. #BR-1001-88, GE).
The data obtained from the experiment was fitted against (1:1) Langmuir model using GE Biacore T200 Evaluation version 3.0 software, and the affinity values were obtained, as shown in Table 12 and Table 13 for details.

Binder	Kd	koff	kon
CH127 (antibody, V domains shown, also called chimeric antibody of mab127) VH: EVQLQQSGPELVKPGESVKISCKASGYSFTAYFMNWVMQSHRKSLEWIGRIYHNNGDTFYSQKFKGKATLTVDKSSNTVHMELRSLTSEDSAVYFCATSYVGDWGQGTTLTVSS VL: DIQMTQSPSSLSASLGERVSLTCRASQDIGDSLNWLQQAPDGTLKRLIYATSSLDSGVPRRFSGSRSGSDYSLTISSLESEDFVDYYCLQYASFPWTFGGGTKLEIK	0.139 nM	3.31e-05 s⁻¹	239000 M⁻¹ s⁻¹
Hab127.31b (antibody, V domains shown, VL3 + VH1b, HCDR2 hot-spot variant; full-length antibody) VH: EVQLVQSGAEVKKPGASVKVSCKASGYTFTAYFMNWVRQAPGQGLEWMGRIYHNLGDTFYSQKFKGRVTMTVDKSTSTVYMELSSLRSEDTAVYYCATSYVGDWGQGTTVTVSS VL: DIQMTQSPSSLSASVGDRVTITCRASQDIGDSLNWLQQKPGGALKRLIYATSSLDSGVPSRFSGSGSGTEYTLTISSLQPEDFATYYCLQYASFPWTFGGGTKVEIK	0.204 nM	4.48e-05 s⁻¹	220000 M⁻¹ s⁻¹
Hab127.34 (antibody, V domains shown, VL3 + VH4; recombined with human heavy and light constant regions) VH: EVQLVQSGAEVKKPGASVKVSCKASGYTFTAYFMNWVMQAPGQSLEWIGRIYHNNGDTFYSQKFKGRATLTVDKSTSTVYMELRSLRSEDTAVYYCATSYVGDWGQGTTVTVSS VL: DIQMTQSPSSLSASVGDRVTITCRASQDIGDSLNWLQQKPGGALKRLIYATSSLDSGVPSRFSGSGSGTEYTLTISSLQPEDFATYYCLQYASFPWTFGGGTKVEIK	0.22 nM	3.58e-05 s⁻¹	163000 M⁻¹ s⁻¹
Hab127.31g (antibody, V domains shown, VL3 + VH1g, HCDR2 hot-spot variant; full-length antibody) VH: EVQLVQSGAEVKKPGASVKVSCKASGYTFTAYFMNWVRQAPGQGLEWMGRIYHQNVDTFYSQKFKGRVTMTVDKSTSTVYMELSSLRSEDTAVYYCATSYVGDWGQGTTVTVSS VL: DIQMTQSPSSLSASVGDRVTITCRASQDIGDSLNWLQQKPGGALKRLIYATSSLDSGVPSRFSGSGSGTEYTLTISSLQPEDFATYYCLQYASFPWTFGGGTKVEIK	0.319 nM	5.18e-05 s⁻¹	163000 M⁻¹ s⁻¹
Hab127.31i (antibody, V domains shown, VL3 + VH1i, HCDR2 hot-spot variant; full-length antibody) VH: EVQLVQSGAEVKKPGASVKVSCKASGYTFTAYFMNWVRQAPGQGLEWMGRIYHHNVDTFYSQKFKGRVTMTVDKSTSTVYMELSSLRSEDTAVYYCATSYVGDWGQGTTVTVSS VL: DIQMTQSPSSLSASVGDRVTITCRASQDIGDSLNWLQQKPGGALKRLIYATSSLDSGVPSRFSGSGSGTEYTLTISSLQPEDFATYYCLQYASFPWTFGGGTKVEIK	0.585 nM	7.93e-05 s⁻¹	136000 M⁻¹ s⁻¹
Hab127.33 (antibody, V domains shown, VL3 + VH3; recombined with human heavy and light constant regions) VH: EVQLVQSGAEVKKPGASVKVSCKASGYTFTAYFMNWVMQAPGQGLEWIGRIYHNNGDTFYSQKFKGRATLTVDKSTSTVYMELSSLRSEDTAVYYCATSYVGDWGQGTTVTVSS VL: DIQMTQSPSSLSASVGDRVTITCRASQDIGDSLNWLQQKPGGALKRLIYATSSLDSGVPSRFSGSGSGTEYTLTISSLQPEDFATYYCLQYASFPWTFGGGTKVEIK	0.211 nM	3.69e-05 s⁻¹	175000 M⁻¹ s⁻¹
Hab127.42 (antibody, V domains shown, VL4 + VH2; recombined with human heavy and light constant regions) VH: EVQLVQSGAEVKKPGASVKVSCKASGYTFTAYFMNWVMQAPGQGLEWMGRIYHNNGDTFYSQKFKGRVTMTVDKSTSTVYMELSSLRSEDTAVYYCATSYVGDWGQGTTVTVSS VL: DIQMTQSPSSLSASVGDRVTITCRASQDIGDSLNWLQQKPGGALKRLIYATSSLDSGVPSRFSGSGSGSDYTLTISSLQPEDFATYYCLQYASFPWTFGGGTKVEIK	0.166 nM	3.94e-05 s⁻¹	238000 M⁻¹ s⁻¹
Hab127.44 (antibody, V domains shown, VL4 + VH4; recombined with human heavy and light constant regions) VH: EVQLVQSGAEVKKPGASVKVSCKASGYTFTAYFMNWVMQAPGQSLEWIGRIYHNNGDTFYSQKFKGRATLTVDKSTSTVYMELRSLRSEDTAVYYCATSYVGDWGQGTTVTVSS VL: DIQMTQSPSSLSASVGDRVTITCRASQDIGDSLNWLQQKPGGALKRLIYATSSLDSGVPSRFSGSGSGSDYTLTISSLQPEDFATYYCLQYASFPWTFGGGTKVEIK	0.18 nM	4.15e-05 s⁻¹	230000 M⁻¹ s⁻¹

The next lines start with the values.

Kd	koff	kon	Binder
0.265 nM	0.000147 s⁻¹	556000 M⁻¹ s⁻¹	CH110 (antibody, V domains shown, also called chimeric antibody of mab110) VH: QVQLQQSGAELARPGASVQMSCKASGYIFTSYTMHWVKQRPGQGLEWIGYINPNSFYIEYNQKFKDKATLTADTSSSTAYMQLSSLTSEDSAVYYCARGDYDLFYDMDNWGQGTSVTVSS VL: DIQMTQSPSSLSASLGERVSLTCRASQDIGNSLNWLQQEPDGTIKRLIYATFRLDSGVPKRFSGSRSGSDYSLTISSLESEDFVDYYCQQYASFPWTFGGGTKLEIK
0.365 nM	5.82e-05 s⁻¹	160000 M⁻¹ s⁻¹	CH108 (antibody, V domains shown, also called chimeric antibody of mab108) VH: QVQLKQSGPGLVQPSQSLSITCTVFGFSLKSYGIQWVRQSPGKGLEWLGVIWSGGSADYNAAFISRLSISKDNSKSQVFFKMNSLQGDDTAIYYCAGQYGSVWGQGTSVTVSS VL: DIQMTQSPSSLSASLGERVSLTCRASQDIGDRLNWLQQEPDGTIKRLIYATSSLDSGVPKRFSGSRSGSDYSLTISSLESEDFVDYYCLQYAGSWTFGGGTKLEIK
0.481 nM	0.000123 s⁻¹	255000 M⁻¹ s⁻¹	Hab108.33 (antibody, V domains shown, VL3 + VH3; full-length antibody) VH: EVTLKESGPVLVKPTETLTLTCTVSGFSLSSYGIQWVRQPPGKLLEWLGVIWSGGSADYNAAFISRLTISKDTSKSQVVLTMTNMDPVDTATYYCAGQYGSVWGQGTLVTVSS VL: DIQMTQSPSSLSASVGDRVTITCRASQDIGDRLNWLQQKPGGAIKRLIYATSSLDSGVPSRFSGSGSGTEYTLTISSLQPEDFATYYCLQYAGSWTFGGGTKVEIK
0.15 nM	3.58e-05 s⁻¹	239000 M⁻¹ s⁻¹	Hab127.43 (antibody, V domains shown, VL4 + VH3; recombined with human heavy and light constant regions) VH: EVQLVQSGAEVKKPGASVKVSCKASGYTFTAYFMNWVMQAPGQGLEWIGRIYHNNGDTFYSQKFKGRATLTVDKSTSTVYMELSSLRSEDTAVYYCATSYVGDWGQGTTVTVSS VL: DIQMTQSPSSLSASVGDRVTITCRASQDIGDSLNWLQQKPGGALKRLIYATSSLDSGVPSRFSGSGSGSDYTLTISSLQPEDFATYYCLQYASFPWTFGGGTKVEIK
0.441 nM	6.66e-05 s⁻¹	151000 M⁻¹ s⁻¹	Hab127.31h (antibody, V domains shown, VL3 + VH1h, HCDR2 hot-spot variant; full-length antibody) VH: EVQLVQSGAEVKKPGASVKVSCKASGYTFTAYFMNWVRQAPGQGLEWMGRIYHLNVDTFYSQKFKGRVTMTVDKSTSTVYMELSSLRSEDTAVYYCATSYVGDWGQGTTVTVSS VL: DIQMTQSPSSLSASVGDRVTITCRASQDIGDSLNWLQQKPGGALKRLIYATSSLDSGVPSRFSGSGSGTEYTLTISSLQPEDFATYYCLQYASFPWTFGGGTKVEIK
0.212 nM	3.75e-05 s⁻¹	177000 M⁻¹ s⁻¹	Hab127.31e (antibody, V domains shown, VL3 + VH1e, HCDR2 hot-spot variant; full-length antibody) VH: EVQLVQSGAEVKKPGASVKVSCKASGYTFTAYFMNWVRQAPGQGLEWMGRIYHNEGDTFYSQKFKGRVTMTVDKSTSTVYMELSSLRSEDTAVYYCATSYVGDWGQGTTVTVSS VL: DIQMTQSPSSLSASVGDRVTITCRASQDIGDSLNWLQQKPGGALKRLIYATSSLDSGVPSRFSGSGSGTEYTLTISSLQPEDFATYYCLQYASFPWTFGGGTKVEIK
0.193 nM	4.33e-05 s⁻¹	224000 M⁻¹ s⁻¹	Hab127.31f (antibody, V domains shown, VL3 + VH1f, HCDR2 hot-spot variant; full-length antibody) VH: EVQLVQSGAEVKKPGASVKVSCKASGYTFTAYFMNWVRQAPGQGLEWMGRIYHNHGDTFYSQKFKGRVTMTVDKSTSTVYMELSSLRSEDTAVYYCATSYVGDWGQGTTVTVSS VL: DIQMTQSPSSLSASVGDRVTITCRASQDIGDSLNWLQQKPGGALKRLIYATSSLDSGVPSRFSGSGSGTEYTLTISSLQPEDFATYYCLQYASFPWTFGGGTKVEIK
0.191 nM	4.39e-05 s⁻¹	230000 M⁻¹ s⁻¹	Hab127.41 (antibody, V domains shown, VL4 + VH1; recombined with human heavy and light constant regions) VH: EVQLVQSGAEVKKPGASVKVSCKASGYTFTAYFMNWVRQAPGQGLEWMGRIYHNNGDTFYSQKFKGRVTMTVDKSTSTVYMELSSLRSEDTAVYYCATSYVGDWGQGTTVTVSS VL: DIQMTQSPSSLSASVGDRVTITCRASQDIGDSLNWLQQKPGGALKRLIYATSSLDSGVPSRFSGSGSGSDYTLTISSLQPEDFATYYCLQYASFPWTFGGGTKVEIK
0.205 nM	4.76e-05 s⁻¹	232000 M⁻¹ s⁻¹	Hab127.31c (antibody, V domains shown, VL3 + VH1c, HCDR2 hot-spot variant; full-length antibody) VH: EVQLVQSGAEVKKPGASVKVSCKASGYTFTAYFMNWVRQAPGQGLEWMGRIYHNTGDTFYSQKFKGRVTMTVDKSTSTVYMELSSLRSEDTAVYYCATSYVGDWGQGTTVTVSS VL: DIQMTQSPSSLSASVGDRVTITCRASQDIGDSLNWLQQKPGGALKRLIYATSSLDSGVPSRFSGSGSGTEYTLTISSLQPEDFATYYCLQYASFPWTFGGGTKVEIK
